The values below come from PMC3506534, “LL-37 Induces Polymerization and Bundling of Actin and Affects Actin Structure” (PLoS ONE, 2012).

Like-named read-outs stand apart in the source and are kept apart here. No end group written: not given here.

Data set [1] addresses T1, Mg-F-actin (Oryctolagus cuniculus, UniProt P68135).
T1 construct: CaATP-G-actin was prepared from acetone dried powder derived from the back and leg muscles of rabbit by the method of Spudich and Watt; from tissue; host or cells: rabbit back and leg skeletal muscle (acetone dried powder)
Kind of data set: Extent of Mg-F-actin bundling by low speed sedimentation. The data set is classed as biochemical, rabbit. To be noted: for EC50: read-out: concentration for half maximal bundling. How it is done:
(§1) CaATP-G-actin was prepared from acetone dried powder derived from the back and leg muscles of rabbit by the method of Spudich and Watt that even without gel filtration yields highly homogeneous actin in purity greater than 90%. CaATP-G-actin was stored in a buffer containing 5 mM TrisHCl, 0.2 mM CaCl2, 0.2 mM ATP, 0.5 mM β-mercaptoethanol, pH 8.0 (CaATP-G-buffer). MgATP-G-actin was obtained by incubating CaATP-G-actin with 0.2 mM EGTA and 0.1 mM MgCl2 at room temperature for 5 min. MgATP-G-actin was diluted for further treatments in MgATP-G-buffer containing 5 mM MOPS, 0.1 mM MgCl2, 0.2 mM EGTA, 0.2 mM ATP and 0.5 mM DTT, pH 7.4. MgF-actin was polymerized from MgATP-G-actin or CaATP-G-actin by 30 min incubation with 2 mM MgCl2 at room temperature. The concentration of unlabeled rabbit skeletal muscle α-G-actin was determined spectrophotometrically using the extinction coefficients E^1% 290 = 11.5 cm^−1. (The optical density of actin was measured in the presence of 0.5 M NaOH, which shifts the maximum of absorbance from 280 nm to 290 nm). Molecular masses of skeletal actin, yeast cofilin, hen-lysozyme and LL-37 were assumed to be 42 kDa, 15.9 kDa, 14.3 kDa and 4.5 kDa respectively.
After addition of polycations, actin samples were centrifuged at 20,800×g at 4°C for 8 min (in an Eppendorf centrifuge). The supernatants were run using SDS-PAGE and analyzed by densitometry using the TINA 2.07d software.
Figure 3 LL-37, scrambled LL-37 and lysozyme induced bundle formation of Mg-F-actin at low and physiological (100 mM NaCl) ionic strength. (A) Kinetics of LL-37-induced bundle formation: LL-37 (2–8 µM) was added to MgF-actin (2 µM) and bundle formation was followed as an increase in light scattering at 350 nm. Presented data are representative of three independent experiments. (B) Extent of LL-37 and lysozyme induced bundle formation: LL-37 or lysozyme (0.5–9 µM) were added to Mg-F-actin (4 µM). Samples were centrifuged at 20,800×g, for 8 min and the supernatants were analyzed by SDS-PAGE and densitometry. (C) Extent of LL-37 and scrambled LL-37 induced bundle formation: LL-37 or scrambled LL-37 (2–14 µM) were added to MgF-actin (4 µM) and bundle formation was measured as in (B). The presented data are mean and standard deviation of three independent experiments in (B) and (C).

Data set [2] concerns LL-37-induced Mg-F-actin bundles. Kind of data set: Kinetics of dissociation of LL-37-induced Mg-F-actin bundles (light scattering). The data set is classed as biochemical, rabbit. To be noted: 200 mM NaCl; 4 µM MgF-actin bundled by 9 µM LL-37; 450 nm.
Protocol: Bundling of MgF-actin was followed by increase in light scattering [20]. The time course of light scattering changes was also measured in a PTI spectrofluorometer, with both excitation and emission wavelengths adjusted to 450 nm. All fluorescence and light scattering measurements were carried out at 22°C.
This was followed by the addition of 6 µM DNase1, cofilin, or 200 mM NaCl. Bundling and dissociation was monitored as a change in light scattering.
This was followed by the addition of 6 µM DNase1, 6 µM cofilin, or 200 mM NaCl (thick arrow). Bundling and dissociation were followed as an increase and decrease in light scattering, respectively, measured at 450 nm. Presented data are representative of three independent experiments.
Data set [3] has as its target T1, Mg-F-actin. To be noted: lysozyme; ref [20]; cited from earlier work. How it is done:
Bundling kinetics of MgF-actin by LL-37, lysozyme and scrambled LL-37 were studied by increase in light scattering and the extent of bundling was determined using low speed centrifugation. The bundling of MgF-actin by LL-37 is also shown by electron microscopy (Figure S1). Mg-F-actin bundle formation was very fast both with LL-37 (Figure 3A) and lysozyme. The extent of bundling was dependent on the concentration and the nature of the polycation used (Figure 3B). At low ionic strength more than 50% of Mg-F-actin was bundled upon addition of lysozyme (1 µM) to Mg-F-actin (4 µM). A similar ...

In data set [4] the target is T2, MgATP-G-actin (Oryctolagus cuniculus, UniProt P68135).
T2 construct: CaATP-G-actin was prepared from acetone dried powder derived from the back and leg muscles of rabbit by the method of Spudich and Watt; from tissue; host or cells: rabbit back and leg skeletal muscle (acetone dried powder)
The data set can be described thus: Polymerization of MgATP-G-actin at low ionic strength (pyrene fluorescence). It counts as biochemical, rabbit. The conditions noted are these: 2 µM MgATP-G-actin, 10% pyrene labeled; low ionic strength MgATP-G-buffer pH 7.4; 22°C; representative of three independent experiments. How it is done: as §1, with “MgF-actin was polymerized from MgATP-G-actin or CaATP-G-actin by 30 min incubation with 2 mM MgCl2 at room temperature.” left out, “Molecular masses of skeletal actin, yeast cofilin, hen-lysozyme and LL-37 were assumed to be 42 kDa, 15.9 kDa, 14.3 kDa and 4.5 kDa respectively.” left out
(§2) Labeling of Mg-F-actin at Cys-374 with pyrene maleimide was carried out according to Kouyama and Mihashi with some modifications. […] The concentration of modified actin was determined by the procedure of Bradford using unmodified actin as a standard. The extent of labeling, which was measured by using pyrene extinction coefficient E344 nm = 22000 cm^−1M^−1, was ∼100%. […]

The target of data set [5] is T1, Mg-F-actin. Kind of data set: NaCl concentration dependent stability of Mg-F-actin bundles (low speed sedimentation). It counts as biochemical, rabbit. The conditions noted are these: 4 µM MgF-actin bundled by 6 µM lysozyme or 10 µM sLL-37; 10 min room temperature. Here is the method: as §1, with “MgF-actin was polymerized from MgATP-G-actin or CaATP-G-actin by 30 min incubation with 2 mM MgCl2 at room temperature.” left out, “Molecular masses of skeletal actin, yeast cofilin, hen-lysozyme and LL-37 were assumed to be 42 kDa, 15.9 kDa, 14.3 kDa and 4.5 kDa respectively.” left out
After addition of polycations, actin samples were centrifuged at 20,800×g at 4°C for 8 min (in an Eppendorf centrifuge). The supernatants were run using SDS-PAGE and analyzed by densitometry using the TINA 2.07d software. […]
Figure 4 NaCl concentration dependent bundling of MgF-actin by LL-37, lysozyme and sLL-37. […] The supernatants were analyzed by SDS-PAGE and densitometry. […]

In data set [6] the target is T2, MgATP-G-actin. Kind of data set: Effect on MgCl2- or NaCl-induced polymerization of MgATP-G-actin (pyrene fluorescence). It counts as biochemical, rabbit. The conditions noted are these: 4 µM LL-37 or lysozyme added simultaneously with salt; 2 µM MgATP-G-actin, 10% pyrene labeled; 22°C. Here is the method: as §1, with “MgF-actin was polymerized from MgATP-G-actin or CaATP-G-actin by 30 min incubation with 2 mM MgCl2 at room temperature.” left out, “Molecular masses of skeletal actin, yeast cofilin, hen-lysozyme and LL-37 were assumed to be 42 kDa, 15.9 kDa, 14.3 kDa and 4.5 kDa respectively.” left out
as §2

In data set [7] the test system is LL-37-induced Mg-F-actin bundles. The conditions noted are these: gelsolin; ref [38]; cited from earlier work. The text has this: (§3) Bundles of actin filaments are major contributors to the viscosity of sputum in the airways of cystic fibrosis patients. LL-37, which also has been found in the sputum, may contribute to actin bundle formation. […] Here, we studied the effect of cofilin [39] and DNase1 on the stability of LL-37-induced bundles.

The conditions of data set [8]: gelsolin; ref [30]; cited from earlier work.
Source text: as §3

For data set [9] the following is noted: gelsolin; ref [6]; cited from earlier work. The text has this: LL-37-induced actin polymerization and bundling was chosen as the subject of this study. LL-37 is a 37 amino acid polycationic peptide with 6 net positive charges and is the only known member in human of the cathelicidin family of host defense peptides. In addition to its antimicrobial activity, the host defense activities of LL-37 include chemoattraction, cytokine release, tissue regeneration, inhibition of immunostimulation and apoptosis,[26]. […] There, it increases the F-actin content in the cyt ...

With “GLKLRFEFSKIKGEFLKTPEVRFRDIKLKDNRISVQR [Scrambled LL-37]”, the MgF-actin bundled entry in data set [1] (sLL-37 10 µM, 4 µM MgF-actin, low ionic strength) is recorded as “more than 60%”.
In the case of `[Cl-].[Na+]` [NaCl], the “rate and completeness of dissociation” value in data set [2] is “complete and very fast”.
“lysozyme: Hen lysozyme, antibacterial polycationic protein, 14.3 kDa, from Sigma”: the “rate of Mg-F-actin bundle formation” value in [3] was “very fast”. For the same molecule, in data set [4], the “concentration giving polymerization of MgATP-G-actin” value came out at 1 µM. Further, in data set [5], the “NaCl concentration at which bundle stability was decreased” value turned out to be 50 mM and the “NaCl concentration in which bundles completely dissociated” value came out at 150 mM. For the same molecule, the “effect on polymerization induced by 2 mM MgCl2 or 100 mM NaCl” value in [6] is “no inhibitory effect”. In data set [1] (4 µM Mg-F-actin, low ionic strength), the EC50 was 1 µM. Also, the EC50 in [1] (4 µM Mg-F-actin, physiological ionic strength (100 mM NaCl)) is 6 µM. In addition, the Mg-F-actin bundled result in data set [1] (lysozyme 1 µM, 4 µM Mg-F-actin, low ionic strength, 20,800×g 8 min, SDS-PAGE densitometry, three independent experiments) was “more than 50%”.
Take Gelsolin: in data set [7], the “dissociation of LL-37-induced actin filament bundles” value was “dissociate LL-37-induced actin filament bundles”. Further, the “effect on sputum viscosity” value in data set [8] is on record as “significantly reduce the viscosity of sputum”. The “effect on LL-37 antibacterial activity” value in [9] was “restore”.
